# Measured values taken from PMC10816394, “Radiosynthesis and Bioevaluation of ^99mTc-Labeled Isocyanide Ubiquicidin 29-41 Derivatives as Potential Agents for Bacterial Infection Imaging” (International Journal of Molecular Sciences, 2024).
# No end group written: not given here.
# What was measured:
# S. aureus-infected mice = test system: S. aureus-infected mice; parameters: species or system female Kunming mice; details: mouse, in vivo
# Description: Bacterial infection mouse models were constructed as follows: S. aureus (ATCC 25923) was cultured in a liquid medium at 37 °C for approximately 24 h, washed with PBS (pH 7.4) and diluted to obtain a suspension of 1 × 10^8 CFU/mL. […] The mice were sacrificed with isoflurane anesthesia at 120 min postinjection. […] To evaluate the metabolic properties of [^99mTc]Tc-CN5UBI 29-41, biodistribution studies were carried out in mice infected with S. aureus at 30, 120 and 240 min.
# [1] = type: physicochemical; details: pH 7.4
# Description: The lipophilicities of the ^99mTc-labeled complexes were evaluated by the distribution coefficient. The method for determining the distribution coefficient was as follows: 0.1 mL of the radiolabeled complex (3.7 MBq) was mixed with 0.9 mL of phosphate buffer (0.025 mol/L, pH 7.4) and 1 mL of n-octanol in a 5 mL centrifuge tube. The mixture was shaken on a vortex mixer at room temperature for 3 min and centrifuged at 5000 r/min for 5 min. Aliquots of 0.1 mL of both n-octanol and PBS were collected, and the radioactivity was determined with a γ-counter. The distribution coefficient was calculated as follows: Log D = lg[(counts per minute in n-octanol/counts per minute in PBS)]. Each group of measurements was carried out five times in parallel. The final results are expressed as the log D ± SD.
Substance,Abscess/Blood ratio (S. aureus-infected mice),Abscess/Muscle ratio (target-to-nontarget ratio) (S. aureus-infected mice),"Log D ± SD, [^99mTc][Tc(Ⅰ)]^+ Core [1]"
"[^99mTc]Tc(CO)3-CN5UBI 29-41: ^99mTc complex of ligand CN5UBI 29-41 with the [^99mTc][Tc(I)(CO)3(H2O)3]^+ core (TGRAKRRMQYNRR; also: CN5 chelator, position not given here, 99mTc(CO)3 complex; UniProt P62861 103-115, looked up, fragment)",0.67 ± 0.15,2.49 ± 0.65,
"[^99mTc]Tc(CO)3-CN6UBI 29-41: ^99mTc complex of ligand CN6UBI 29-41 with the [^99mTc][Tc(I)(CO)3(H2O)3]^+ core (TGRAKRRMQYNRR; also: CN6 chelator, position not given here, 99mTc(CO)3 complex; UniProt P62861 103-115, looked up, fragment)",0.73 ± 0.19,2.48 ± 0.45,
"[^99mTc]Tc(CO)3-CN7UBI 29-41: ^99mTc complex of ligand CN7UBI 29-41 with the [^99mTc][Tc(I)(CO)3(H2O)3]^+ core (TGRAKRRMQYNRR; also: CN7 chelator, position not given here, 99mTc(CO)3 complex; UniProt P62861 103-115, looked up, fragment)",0.69 ± 0.08,2.43 ± 0.49,
"[^99mTc]Tc(CO)3-CN8UBI 29-41: ^99mTc complex of ligand CN8UBI 29-41 with the [^99mTc][Tc(I)(CO)3(H2O)3]^+ core (TGRAKRRMQYNRR; also: CN8 chelator, position not given here, 99mTc(CO)3 complex; UniProt P62861 103-115, looked up, fragment)",0.64 ± 0.11,2.42 ± 0.37,
"[^99mTc]Tc(CO)3-CN9UBI 29-41: ^99mTc complex of ligand CN9UBI 29-41 with the [^99mTc][Tc(I)(CO)3(H2O)3]^+ core (TGRAKRRMQYNRR; also: CN9 chelator, position not given here, 99mTc(CO)3 complex; UniProt P62861 103-115, looked up, fragment)",0.75 ± 0.12,2.60 ± 0.68,
"[^99mTc]Tc-CN6UBI 29-41: ^99mTc complex of ligand CN6UBI 29-41 with the [^99mTc]Tc(I)^+ core (TGRAKRRMQYNRR; also: CN6 chelator, position not given here, 99mTc(I) complex; UniProt P62861 103-115, looked up, fragment)",0.75 ± 0.10,3.48 ± 0.70,−2.62 ± 0.03
"[^99mTc]Tc-CN7UBI 29-41: ^99mTc complex of ligand CN7UBI 29-41 with the [^99mTc]Tc(I)^+ core (TGRAKRRMQYNRR; also: CN7 chelator, position not given here, 99mTc(I) complex; UniProt P62861 103-115, looked up, fragment)",0.56 ± 0.09,2.52 ± 0.56,−2.57 ± 0.03
"[^99mTc]Tc-CN8UBI 29-41: ^99mTc complex of ligand CN8UBI 29-41 with the [^99mTc]Tc(I)^+ core (TGRAKRRMQYNRR; also: CN8 chelator, position not given here, 99mTc complex with [99mTc]Tc(I)+ core; UniProt P62861 103-115, looked up, fragment)",0.66 ± 0.16,2.64 ± 0.65,−2.54 ± 0.01
